B1: Speckle-type POZ protein (Homo sapiens), O43791 (parent)
chain: MSRVPSPPPPAEMSSGPVAESWCYTQIKVVKFSYMWTINNFSFCREEMGEVIKSSTFSSGANDKLKWCLRVNPKGLDEESKDYLSLYLLLVSCPKSEVRAKFKFSILNAKGEETKAMESQRAYRFVQGKDWGFKKFIRRDFLLDEANGLLPDDKLTLFCEVSVVQDSVNISGQNTMNMVKVPECRLADELGGLWENSRFTDCCLCVAGQEFQAHKAILAARSPVFSAMFEHEMEESKKNRVEINDVEPEVFKEMMCFIYTGKAPNLDKMADDLLAAADKYALERLKVMCEDALCSNLSVENAAEILILADLHSADQLKTQAVDFINYHASDVLETSGWKSMVVSHPHLVAEAYRSLASAQCPFLGPPRKRLKQS

Variants of: B1
Conditions: with gbra6_human GABRA6, Q16445
Chain of gbra6_human GABRA6, Q16445 (Q16445 whole entry): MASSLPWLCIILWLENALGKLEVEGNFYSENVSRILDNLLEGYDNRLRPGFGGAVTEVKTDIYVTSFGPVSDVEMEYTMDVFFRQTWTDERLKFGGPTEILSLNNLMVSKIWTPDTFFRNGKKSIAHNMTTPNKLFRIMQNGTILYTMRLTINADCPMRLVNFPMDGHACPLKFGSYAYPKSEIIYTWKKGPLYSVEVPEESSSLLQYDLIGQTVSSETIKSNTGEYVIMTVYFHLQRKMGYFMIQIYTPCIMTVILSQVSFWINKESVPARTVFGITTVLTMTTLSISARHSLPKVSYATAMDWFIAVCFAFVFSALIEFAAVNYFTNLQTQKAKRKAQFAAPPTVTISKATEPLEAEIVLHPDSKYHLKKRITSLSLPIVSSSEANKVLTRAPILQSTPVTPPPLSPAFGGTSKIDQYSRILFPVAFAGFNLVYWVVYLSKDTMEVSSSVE

Variant | effect of a mutation on the interaction
MSRVPSPPPPAEMSSGPVAESWCYTQIKVVKFSYMWTINNFSFCREEMGEVIKSSTFSSGANDKLKWCLRVNPKGLDEESKDYLSLYLLLVSCPKSEVRAKFKFSILNAKGEETKAMESQRAYRFVQGKDWGVKKFIRRDFLLDEANGLLPDDKLTLFCEVSVVQDSVNISGQNTMNMVKVPECRLADELGGLWENSRFTDCCLCVAGQEFQAHKAILAARSPVFSAMFEHEMEESKKNRVEINDVEPEVFKEMMCFIYTGKAPNLDKMADDLLAAADKYALERLKVMCEDALCSNLSVENAAEILILADLHSADQLKTQAVDFINYHASDVLETSGWKSMVVSHPHLVAEAYRSLASAQCPFLGPPRKRLKQS [F133V] | with no effect

Variants of: B1
Conditions: with gata1_human GATA1, P15976
Chain of gata1_human GATA1, P15976 (P15976 whole entry): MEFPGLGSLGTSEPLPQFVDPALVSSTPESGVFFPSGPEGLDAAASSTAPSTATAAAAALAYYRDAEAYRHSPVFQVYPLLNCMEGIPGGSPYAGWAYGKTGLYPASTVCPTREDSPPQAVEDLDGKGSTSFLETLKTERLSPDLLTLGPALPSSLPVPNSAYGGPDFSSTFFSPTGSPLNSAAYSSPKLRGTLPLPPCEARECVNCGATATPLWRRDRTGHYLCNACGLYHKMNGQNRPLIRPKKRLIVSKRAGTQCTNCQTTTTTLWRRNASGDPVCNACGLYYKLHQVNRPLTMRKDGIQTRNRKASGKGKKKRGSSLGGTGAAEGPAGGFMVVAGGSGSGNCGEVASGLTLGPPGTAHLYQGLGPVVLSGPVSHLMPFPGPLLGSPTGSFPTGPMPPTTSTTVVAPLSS

Variant | effect of a mutation on the interaction
MSRVPSPPPPAEMSSGPVAESWCYTQIKVVKFSYMWTINNFSFCREEMGEVIKSSTFSSGANDKLKWCLRVNPKGLDEESKDYLSLYLLLVSCPKSEVRAKFKFSILNAKGEETKAMESQRAYRFVQGKDWGVKKFIRRDFLLDEANGLLPDDKLTLFCEVSVVQDSVNISGQNTMNMVKVPECRLADELGGLWENSRFTDCCLCVAGQEFQAHKAILAARSPVFSAMFEHEMEESKKNRVEINDVEPEVFKEMMCFIYTGKAPNLDKMADDLLAAADKYALERLKVMCEDALCSNLSVENAAEILILADLHSADQLKTQAVDFINYHASDVLETSGWKSMVVSHPHLVAEAYRSLASAQCPFLGPPRKRLKQS [F133V] | with no effect

Variants of: B1
Conditions: with p66b_human GATAD2B

Variant | effect of a mutation on the interaction
MSRVPSPPPPAEMSSGPVAESWCYTQIKVVKFSYMWTINNFSFCREEMGEVIKSSTFSSGANDKLKWCLRVNPKGLDEESKDYLSLYLLLVSCPKSEVRAKFKFSILNAKGEETKAMESQRAYRFVQGKDWGVKKFIRRDFLLDEANGLLPDDKLTLFCEVSVVQDSVNISGQNTMNMVKVPECRLADELGGLWENSRFTDCCLCVAGQEFQAHKAILAARSPVFSAMFEHEMEESKKNRVEINDVEPEVFKEMMCFIYTGKAPNLDKMADDLLAAADKYALERLKVMCEDALCSNLSVENAAEILILADLHSADQLKTQAVDFINYHASDVLETSGWKSMVVSHPHLVAEAYRSLASAQCPFLGPPRKRLKQS [F133V] | with no effect

Variants of: B1
Conditions: with gna11_human GNA11, P29992
Chain of gna11_human GNA11, P29992 (P29992 whole entry): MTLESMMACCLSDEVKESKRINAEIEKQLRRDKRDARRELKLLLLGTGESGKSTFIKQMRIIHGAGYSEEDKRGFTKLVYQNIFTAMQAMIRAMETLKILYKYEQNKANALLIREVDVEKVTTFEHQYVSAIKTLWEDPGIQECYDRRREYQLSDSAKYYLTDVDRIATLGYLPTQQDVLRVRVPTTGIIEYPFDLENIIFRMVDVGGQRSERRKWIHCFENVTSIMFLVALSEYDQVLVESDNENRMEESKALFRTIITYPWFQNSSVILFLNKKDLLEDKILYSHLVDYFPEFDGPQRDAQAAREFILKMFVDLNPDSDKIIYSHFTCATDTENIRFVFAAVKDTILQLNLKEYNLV

Variant | effect of a mutation on the interaction
MSRVPSPPPPAEMSSGPVAESWCYTQIKVVKFSYMWTINNFSFCREEMGEVIKSSTFSSGANDKLKWCLRVNPKGLDEESKDYLSLYLLLVSCPKSEVRAKFKFSILNAKGEETKAMESQRAYRFVQGKDWGVKKFIRRDFLLDEANGLLPDDKLTLFCEVSVVQDSVNISGQNTMNMVKVPECRLADELGGLWENSRFTDCCLCVAGQEFQAHKAILAARSPVFSAMFEHEMEESKKNRVEINDVEPEVFKEMMCFIYTGKAPNLDKMADDLLAAADKYALERLKVMCEDALCSNLSVENAAEILILADLHSADQLKTQAVDFINYHASDVLETSGWKSMVVSHPHLVAEAYRSLASAQCPFLGPPRKRLKQS [F133V] | with no effect

Variants of: B1
Conditions: with gna13_human GNA13, Q14344
Chain of gna13_human GNA13, Q14344 (Q14344 whole entry): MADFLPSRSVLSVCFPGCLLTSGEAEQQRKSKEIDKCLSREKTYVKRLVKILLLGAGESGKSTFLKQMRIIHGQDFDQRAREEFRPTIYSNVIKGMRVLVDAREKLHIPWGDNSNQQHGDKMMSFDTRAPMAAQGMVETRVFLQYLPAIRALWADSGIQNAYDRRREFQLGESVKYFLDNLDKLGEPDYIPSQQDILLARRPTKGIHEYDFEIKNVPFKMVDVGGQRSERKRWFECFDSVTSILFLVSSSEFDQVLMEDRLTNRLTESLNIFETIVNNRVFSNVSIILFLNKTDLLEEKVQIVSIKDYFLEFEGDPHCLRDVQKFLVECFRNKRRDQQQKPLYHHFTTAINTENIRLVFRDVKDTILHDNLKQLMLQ

Variant | effect of a mutation on the interaction
MSRVPSPPPPAEMSSGPVAESWCYTQIKVVKFSYMWTINNFSFCREEMGEVIKSSTFSSGANDKLKWCLRVNPKGLDEESKDYLSLYLLLVSCPKSEVRAKFKFSILNAKGEETKAMESQRAYRFVQGKDWGVKKFIRRDFLLDEANGLLPDDKLTLFCEVSVVQDSVNISGQNTMNMVKVPECRLADELGGLWENSRFTDCCLCVAGQEFQAHKAILAARSPVFSAMFEHEMEESKKNRVEINDVEPEVFKEMMCFIYTGKAPNLDKMADDLLAAADKYALERLKVMCEDALCSNLSVENAAEILILADLHSADQLKTQAVDFINYHASDVLETSGWKSMVVSHPHLVAEAYRSLASAQCPFLGPPRKRLKQS [F133V] | with no effect

Variants of: B1
Conditions: with gnaq_human GNAQ

Variant | effect of a mutation on the interaction
MSRVPSPPPPAEMSSGPVAESWCYTQIKVVKFSYMWTINNFSFCREEMGEVIKSSTFSSGANDKLKWCLRVNPKGLDEESKDYLSLYLLLVSCPKSEVRAKFKFSILNAKGEETKAMESQRAYRFVQGKDWGVKKFIRRDFLLDEANGLLPDDKLTLFCEVSVVQDSVNISGQNTMNMVKVPECRLADELGGLWENSRFTDCCLCVAGQEFQAHKAILAARSPVFSAMFEHEMEESKKNRVEINDVEPEVFKEMMCFIYTGKAPNLDKMADDLLAAADKYALERLKVMCEDALCSNLSVENAAEILILADLHSADQLKTQAVDFINYHASDVLETSGWKSMVVSHPHLVAEAYRSLASAQCPFLGPPRKRLKQS [F133V] | with no effect

Variants of: B1
Conditions: with grm1_human GRM1, Q13255
Chain of grm1_human GRM1, Q13255 (Q13255 whole entry, looked up): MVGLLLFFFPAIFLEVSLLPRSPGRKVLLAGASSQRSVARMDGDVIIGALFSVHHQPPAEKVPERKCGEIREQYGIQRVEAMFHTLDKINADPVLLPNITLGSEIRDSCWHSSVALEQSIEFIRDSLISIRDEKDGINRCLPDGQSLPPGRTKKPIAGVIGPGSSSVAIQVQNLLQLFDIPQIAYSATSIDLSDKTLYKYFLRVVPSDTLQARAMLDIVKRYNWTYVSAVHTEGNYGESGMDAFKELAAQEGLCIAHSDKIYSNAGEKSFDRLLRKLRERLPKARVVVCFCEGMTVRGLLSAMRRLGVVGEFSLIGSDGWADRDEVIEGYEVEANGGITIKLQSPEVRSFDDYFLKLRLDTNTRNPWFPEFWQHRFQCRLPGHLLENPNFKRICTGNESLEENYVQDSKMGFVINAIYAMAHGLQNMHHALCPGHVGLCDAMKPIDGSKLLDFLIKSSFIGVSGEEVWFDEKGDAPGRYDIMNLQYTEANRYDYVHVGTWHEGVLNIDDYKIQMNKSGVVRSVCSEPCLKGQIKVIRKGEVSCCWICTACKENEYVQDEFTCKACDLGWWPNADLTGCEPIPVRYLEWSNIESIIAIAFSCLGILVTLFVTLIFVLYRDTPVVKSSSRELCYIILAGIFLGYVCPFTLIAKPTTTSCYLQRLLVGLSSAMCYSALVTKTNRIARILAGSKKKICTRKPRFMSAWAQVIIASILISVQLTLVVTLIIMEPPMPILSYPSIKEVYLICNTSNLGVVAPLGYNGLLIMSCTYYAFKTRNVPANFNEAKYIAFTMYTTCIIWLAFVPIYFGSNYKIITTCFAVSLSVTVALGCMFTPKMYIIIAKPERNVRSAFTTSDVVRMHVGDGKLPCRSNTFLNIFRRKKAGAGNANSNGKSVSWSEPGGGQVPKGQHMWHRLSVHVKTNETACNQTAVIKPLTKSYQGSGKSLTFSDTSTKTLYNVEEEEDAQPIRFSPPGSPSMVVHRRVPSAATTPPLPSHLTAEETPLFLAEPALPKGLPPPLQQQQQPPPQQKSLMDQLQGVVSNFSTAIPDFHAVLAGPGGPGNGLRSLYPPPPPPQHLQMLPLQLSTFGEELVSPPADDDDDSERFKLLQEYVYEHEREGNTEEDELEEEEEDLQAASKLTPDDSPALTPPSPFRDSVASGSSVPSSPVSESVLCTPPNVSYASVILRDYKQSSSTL

Variant | effect of a mutation on the interaction
MSRVPSPPPPAEMSSGPVAESWCYTQIKVVKFSYMWTINNFSFCREEMGEVIKSSTFSSGANDKLKWCLRVNPKGLDEESKDYLSLYLLLVSCPKSEVRAKFKFSILNAKGEETKAMESQRAYRFVQGKDWGVKKFIRRDFLLDEANGLLPDDKLTLFCEVSVVQDSVNISGQNTMNMVKVPECRLADELGGLWENSRFTDCCLCVAGQEFQAHKAILAARSPVFSAMFEHEMEESKKNRVEINDVEPEVFKEMMCFIYTGKAPNLDKMADDLLAAADKYALERLKVMCEDALCSNLSVENAAEILILADLHSADQLKTQAVDFINYHASDVLETSGWKSMVVSHPHLVAEAYRSLASAQCPFLGPPRKRLKQS [F133V] | with no effect

Variants of: B1
Conditions: with grm3_human GRM3, Q14832
Chain of grm3_human GRM3, Q14832 (Q14832 whole entry, looked up): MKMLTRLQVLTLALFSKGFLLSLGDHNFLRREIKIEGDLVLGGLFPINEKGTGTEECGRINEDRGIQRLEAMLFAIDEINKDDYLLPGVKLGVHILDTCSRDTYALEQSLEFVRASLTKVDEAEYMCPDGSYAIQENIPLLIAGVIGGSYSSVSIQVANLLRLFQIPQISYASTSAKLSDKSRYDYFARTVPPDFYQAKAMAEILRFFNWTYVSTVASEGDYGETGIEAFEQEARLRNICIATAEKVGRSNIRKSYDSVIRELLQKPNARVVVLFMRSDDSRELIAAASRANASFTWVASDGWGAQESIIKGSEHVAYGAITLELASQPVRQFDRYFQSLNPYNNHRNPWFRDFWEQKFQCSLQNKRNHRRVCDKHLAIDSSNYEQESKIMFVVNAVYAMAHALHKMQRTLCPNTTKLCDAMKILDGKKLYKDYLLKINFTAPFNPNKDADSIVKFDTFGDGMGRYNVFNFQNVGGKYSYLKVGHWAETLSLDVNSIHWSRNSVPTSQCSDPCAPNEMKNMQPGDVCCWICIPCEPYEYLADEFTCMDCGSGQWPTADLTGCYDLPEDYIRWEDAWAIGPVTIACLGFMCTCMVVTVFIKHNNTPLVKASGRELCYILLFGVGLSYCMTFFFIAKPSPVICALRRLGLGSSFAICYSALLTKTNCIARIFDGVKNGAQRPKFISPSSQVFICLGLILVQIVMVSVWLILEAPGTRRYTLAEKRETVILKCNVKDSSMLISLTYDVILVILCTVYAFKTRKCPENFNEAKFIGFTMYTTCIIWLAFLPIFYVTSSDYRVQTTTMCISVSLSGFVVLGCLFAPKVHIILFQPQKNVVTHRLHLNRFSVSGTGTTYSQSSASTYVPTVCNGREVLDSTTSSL

Variant | effect of a mutation on the interaction
MSRVPSPPPPAEMSSGPVAESWCYTQIKVVKFSYMWTINNFSFCREEMGEVIKSSTFSSGANDKLKWCLRVNPKGLDEESKDYLSLYLLLVSCPKSEVRAKFKFSILNAKGEETKAMESQRAYRFVQGKDWGVKKFIRRDFLLDEANGLLPDDKLTLFCEVSVVQDSVNISGQNTMNMVKVPECRLADELGGLWENSRFTDCCLCVAGQEFQAHKAILAARSPVFSAMFEHEMEESKKNRVEINDVEPEVFKEMMCFIYTGKAPNLDKMADDLLAAADKYALERLKVMCEDALCSNLSVENAAEILILADLHSADQLKTQAVDFINYHASDVLETSGWKSMVVSHPHLVAEAYRSLASAQCPFLGPPRKRLKQS [F133V] | with no effect

Variants of: B1
Conditions: with gtpb4_human GTPBP4, Q9BZE4

Variant | effect of a mutation on the interaction
MSRVPSPPPPAEMSSGPVAESWCYTQIKVVKFSYMWTINNFSFCREEMGEVIKSSTFSSGANDKLKWCLRVNPKGLDEESKDYLSLYLLLVSCPKSEVRAKFKFSILNAKGEETKAMESQRAYRFVQGKDWGVKKFIRRDFLLDEANGLLPDDKLTLFCEVSVVQDSVNISGQNTMNMVKVPECRLADELGGLWENSRFTDCCLCVAGQEFQAHKAILAARSPVFSAMFEHEMEESKKNRVEINDVEPEVFKEMMCFIYTGKAPNLDKMADDLLAAADKYALERLKVMCEDALCSNLSVENAAEILILADLHSADQLKTQAVDFINYHASDVLETSGWKSMVVSHPHLVAEAYRSLASAQCPFLGPPRKRLKQS [F133V] | with no effect

Variants of: B1
Conditions: with h33_human H3-3A

Variant | effect of a mutation on the interaction
MSRVPSPPPPAEMSSGPVAESWCYTQIKVVKFSYMWTINNFSFCREEMGEVIKSSTFSSGANDKLKWCLRVNPKGLDEESKDYLSLYLLLVSCPKSEVRAKFKFSILNAKGEETKAMESQRAYRFVQGKDWGVKKFIRRDFLLDEANGLLPDDKLTLFCEVSVVQDSVNISGQNTMNMVKVPECRLADELGGLWENSRFTDCCLCVAGQEFQAHKAILAARSPVFSAMFEHEMEESKKNRVEINDVEPEVFKEMMCFIYTGKAPNLDKMADDLLAAADKYALERLKVMCEDALCSNLSVENAAEILILADLHSADQLKTQAVDFINYHASDVLETSGWKSMVVSHPHLVAEAYRSLASAQCPFLGPPRKRLKQS [F133V] | with no effect

Variants of: B1
Conditions: with hdac1_human HDAC1, Q13547
Chain of hdac1_human HDAC1, Q13547 (Q13547 whole entry): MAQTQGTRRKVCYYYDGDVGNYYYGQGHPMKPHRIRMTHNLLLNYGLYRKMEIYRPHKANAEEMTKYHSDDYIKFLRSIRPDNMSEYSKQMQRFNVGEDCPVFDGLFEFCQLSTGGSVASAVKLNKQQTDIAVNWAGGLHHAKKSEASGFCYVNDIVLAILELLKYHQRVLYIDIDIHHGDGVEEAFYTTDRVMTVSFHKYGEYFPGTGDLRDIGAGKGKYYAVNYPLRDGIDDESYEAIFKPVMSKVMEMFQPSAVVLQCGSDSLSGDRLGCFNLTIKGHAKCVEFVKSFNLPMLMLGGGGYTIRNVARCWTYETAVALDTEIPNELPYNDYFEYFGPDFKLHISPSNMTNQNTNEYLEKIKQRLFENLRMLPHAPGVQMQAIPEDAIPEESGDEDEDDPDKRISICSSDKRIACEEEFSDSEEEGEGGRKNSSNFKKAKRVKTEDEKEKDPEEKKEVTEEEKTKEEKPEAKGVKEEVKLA

Variant | effect of a mutation on the interaction
MSRVPSPPPPAEMSSGPVAESWCYTQIKVVKFSYMWTINNFSFCREEMGEVIKSSTFSSGANDKLKWCLRVNPKGLDEESKDYLSLYLLLVSCPKSEVRAKFKFSILNAKGEETKAMESQRAYRFVQGKDWGVKKFIRRDFLLDEANGLLPDDKLTLFCEVSVVQDSVNISGQNTMNMVKVPECRLADELGGLWENSRFTDCCLCVAGQEFQAHKAILAARSPVFSAMFEHEMEESKKNRVEINDVEPEVFKEMMCFIYTGKAPNLDKMADDLLAAADKYALERLKVMCEDALCSNLSVENAAEILILADLHSADQLKTQAVDFINYHASDVLETSGWKSMVVSHPHLVAEAYRSLASAQCPFLGPPRKRLKQS [F133V] | with no effect

Variants of: B1
Conditions: with hdac3_human HDAC3, O15379
Chain of hdac3_human HDAC3, O15379 (O15379 whole entry): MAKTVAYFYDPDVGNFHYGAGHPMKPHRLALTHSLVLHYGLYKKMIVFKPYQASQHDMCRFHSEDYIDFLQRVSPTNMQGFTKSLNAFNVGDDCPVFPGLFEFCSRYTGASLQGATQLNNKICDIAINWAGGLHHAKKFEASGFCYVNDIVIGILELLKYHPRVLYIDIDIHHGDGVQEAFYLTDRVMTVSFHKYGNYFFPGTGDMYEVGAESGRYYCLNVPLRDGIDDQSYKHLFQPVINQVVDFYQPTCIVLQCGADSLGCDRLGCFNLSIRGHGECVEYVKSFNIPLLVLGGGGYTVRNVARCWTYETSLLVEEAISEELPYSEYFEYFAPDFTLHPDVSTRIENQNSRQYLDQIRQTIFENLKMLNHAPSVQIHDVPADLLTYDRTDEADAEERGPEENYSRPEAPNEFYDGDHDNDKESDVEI

Variant | effect of a mutation on the interaction
MSRVPSPPPPAEMSSGPVAESWCYTQIKVVKFSYMWTINNFSFCREEMGEVIKSSTFSSGANDKLKWCLRVNPKGLDEESKDYLSLYLLLVSCPKSEVRAKFKFSILNAKGEETKAMESQRAYRFVQGKDWGVKKFIRRDFLLDEANGLLPDDKLTLFCEVSVVQDSVNISGQNTMNMVKVPECRLADELGGLWENSRFTDCCLCVAGQEFQAHKAILAARSPVFSAMFEHEMEESKKNRVEINDVEPEVFKEMMCFIYTGKAPNLDKMADDLLAAADKYALERLKVMCEDALCSNLSVENAAEILILADLHSADQLKTQAVDFINYHASDVLETSGWKSMVVSHPHLVAEAYRSLASAQCPFLGPPRKRLKQS [F133V] | with no effect

Variants of: B1
Conditions: with hgf_human HGF

Variant | effect of a mutation on the interaction
MSRVPSPPPPAEMSSGPVAESWCYTQIKVVKFSYMWTINNFSFCREEMGEVIKSSTFSSGANDKLKWCLRVNPKGLDEESKDYLSLYLLLVSCPKSEVRAKFKFSILNAKGEETKAMESQRAYRFVQGKDWGVKKFIRRDFLLDEANGLLPDDKLTLFCEVSVVQDSVNISGQNTMNMVKVPECRLADELGGLWENSRFTDCCLCVAGQEFQAHKAILAARSPVFSAMFEHEMEESKKNRVEINDVEPEVFKEMMCFIYTGKAPNLDKMADDLLAAADKYALERLKVMCEDALCSNLSVENAAEILILADLHSADQLKTQAVDFINYHASDVLETSGWKSMVVSHPHLVAEAYRSLASAQCPFLGPPRKRLKQS [F133V] | with no effect

Variants of: B1
Conditions: with h31_human H3C1, P68431

Variant | effect of a mutation on the interaction
MSRVPSPPPPAEMSSGPVAESWCYTQIKVVKFSYMWTINNFSFCREEMGEVIKSSTFSSGANDKLKWCLRVNPKGLDEESKDYLSLYLLLVSCPKSEVRAKFKFSILNAKGEETKAMESQRAYRFVQGKDWGVKKFIRRDFLLDEANGLLPDDKLTLFCEVSVVQDSVNISGQNTMNMVKVPECRLADELGGLWENSRFTDCCLCVAGQEFQAHKAILAARSPVFSAMFEHEMEESKKNRVEINDVEPEVFKEMMCFIYTGKAPNLDKMADDLLAAADKYALERLKVMCEDALCSNLSVENAAEILILADLHSADQLKTQAVDFINYHASDVLETSGWKSMVVSHPHLVAEAYRSLASAQCPFLGPPRKRLKQS [F133V] | with no effect

Variants of: B1
Conditions: with hlab_human HLA-B

Variant | effect of a mutation on the interaction
MSRVPSPPPPAEMSSGPVAESWCYTQIKVVKFSYMWTINNFSFCREEMGEVIKSSTFSSGANDKLKWCLRVNPKGLDEESKDYLSLYLLLVSCPKSEVRAKFKFSILNAKGEETKAMESQRAYRFVQGKDWGVKKFIRRDFLLDEANGLLPDDKLTLFCEVSVVQDSVNISGQNTMNMVKVPECRLADELGGLWENSRFTDCCLCVAGQEFQAHKAILAARSPVFSAMFEHEMEESKKNRVEINDVEPEVFKEMMCFIYTGKAPNLDKMADDLLAAADKYALERLKVMCEDALCSNLSVENAAEILILADLHSADQLKTQAVDFINYHASDVLETSGWKSMVVSHPHLVAEAYRSLASAQCPFLGPPRKRLKQS [F133V] | with no effect
